# Paper PMC6509287
# What was measured:
# TOPBP1 [1] = molecular target: TOPBP1 (UniProt Q92547); assay: HA immunoprecipitation, western blot; conditions: reference: wild type
# TOPBP1 [2] = molecular target: TOPBP1 (UniProt Q92547); assay: GST pull-down from nuclear extract; conditions: reference: wild-type fragment; sites S196
substance,measurement,setting,value
MDC1 (from UniProt Q14676) S196A,binding against the reference,TOPBP1 [1]; sites S196,lost
MDC1 109-330 (from UniProt Q14676) S196A,binding against the reference,TOPBP1 [2],lost
MDC1 (from UniProt Q14676) S168A,binding against the reference,TOPBP1 [1]; sites S168,lost
